Assays:
[1] = tested on: ArfA (S302 amide proton, β3-α4 loop); assay: Saturation transfer difference NMR; type: binding, M. tuberculosis
ArfA-c [2] = type: binding, M. tuberculosis
ArfA-c [3] = target: ArfA-c (Mycobacterium tuberculosis, UniProt P9WIU5); assay: biochemical; type: binding
[4] = type: binding, Mycobacterium tuberculosis, strain H37Rv; conditions: qualitative

**Q.** For “uridine-5'-diphosphate–MurNAc–L-Ala–D-γ-Glu–m-DAP–D-Ala– D-Ala [UMDP]”, which “proximity of S302 amide proton to MurNAc methyl protons” value [1] is on record?
**A.** in some proximity

**Q.** And the Kd (ArfA-c [2])?
**A.** ~1000 µM

**Q.** For CC(=O)N[C@H]1[C@@H](OP(=O)(O)OP(=O)(O)OC[C@H]2O[C@@H](n3ccc(=O)[nH]c3=O)[C@H](O)[C@@H]2O)O[C@H](CO)[C@@H](O)[C@@H]1O[C@H](C)C(=O)N[C@@H](C)C(=O)N[C@H](CCC(=O)N[C@@H](CCC[C@@H](N)C(=O)O)C(=O)N[C@H](C)C(=O)N[C@H](C)C(=O)O)C(=O)O [UMDP, uridine-5'-diphosphate–MurNAc–L-Ala–D-γ-Glu–m-DAP–D-Ala–D-Ala (Park's nucleotide)], which Kd (ArfA-c [3]) is on record?
**A.** ~1000 µM

**Q.** For CC(=O)N[C@H]1C(OP(=O)(O)OP(=O)(O)OC[C@H]2O[C@@H](n3ccc(=O)[nH]c3=O)[C@H](O)[C@@H]2O)O[C@H](CO)[C@@H](O)[C@@H]1O[C@H](C)C(=O)N[C@@H](C)C(=O)N[C@H](CCC(=O)N[C@@H](CCCCN)C(=O)N[C@H](C)C(=O)N[C@H](C)C(=O)O)C(=O)O (stereo partly drawn) [UMKP, uridine-5'-diphosphate–MurNAc–L-Ala–D-γ-Glu–L-Lys–D-Ala–D-Ala], which “effect on the NMR spectrum of ArfA-c” value (ArfA-c [2]) is on record?
**A.** no effect

B1: ArfA-bc: joint B and C domains of ArfA, residues 73–326 (protein)
chain: GASALSLSLLSISRSGNTVTLIGDFPDEAAKAALMTALNGLLAPGVNVIDQIHVDPVVRSLDFSSAEPVFTASVPIPDFGLKVERDTVTLTGTAPSSEHKDAVKRAATSTWPDMKIVNNIEVTGQAPPGPPASGPCADLQSAINAVTGGPIAFGNDGASLIPADYEILNRVADKLKACPDARVTINGYTDNTGSEGINIPLSAQRAKIVADYLVARGVAGDHIATVGLGSVNPIASNATPEGRAKNRRVEIVVN
**Q.** For B1, which “stabilization provided by the disulfide bond” value (GSSG vs DTT, Sypro orange DSF, Fig. 2a) is on record?
**A.** about 1 °C

B2: ArfA-c: C domain of M. tuberculosis ArfA (Rv0899), residues 196–326 (protein)
chain: GQAPPGPPASGPCADLQSAINAVTGGPIAFGNDGASLIPADYEILNRVADKLKACPDARVTINGYTDNTGSEGINIPLSAQRAKIVADYLVARGVAGDHIATVGLGSVNPIASNATPEGRAKNRRVEIVVN
**Q.** Which “temperature of thermal unfolding, pH 4” value (pH4, 15 µM protein, Sypro orange, 20-95°C, 0.03°C per second, Fig. 2d) does the source give for B2 here?
**A.** 65.0 °C

**Q.** What about the “temperature of thermal unfolding, pH 7” value (pH7, 15 µM protein, Sypro orange, 20-95°C, 0.03°C per second, Fig. 2d) of the same molecule?
**A.** 63.2 °C

**Q.** What about the “increase in temperature of thermal unfolding on lowering pH from 7 to 4” value (pH 7 to 4, Sypro orange DSF, Fig. 2d) of the same molecule?
**A.** 2 °C

**Q.** And the “affinity for polymeric M. tuberculosis peptidoglycan” value [4]?
**A.** strong (enough to precipitate the protein)

Source: article PMC3269530 (Journal of Molecular Biology, 2011)
